Results on two molecules are retold here after paper PMC4867596.

The target in test [1] is peroxisomal MAVS of Mefs MAVS-Pex cells (UniProt Q7Z434). In words: co-IP; Mefs MAVS-Pex cells transfected with vMIA-myc or myc-Miro1 for 24 h; precipitated with an antibody against MAVS and Dynabeads Protein G; blot for MAVS and myc; controls: non-transfected cells, Mefs MAVS-KO cells with vMIA-myc.
Test [2] has as its target Pex19-YFP (UniProt P40855). In words: co-IP; HepG2 cells co-transfected with Pex19-YFP and vMIA-myc for 24 h; Pex19-YFP precipitated with GFP-Trap_M beads, 2 h at 4 °C; lysis in 10 mM Tris-HCl pH 7.5, 150 mM NaCl, 0.5 mM EDTA, 0.5% NP-40; blot for myc, Pex19 and GFP; control: cells with GFP and vMIA-myc.
For test [3], the target named is Pex19-YFP (UniProt P40855). In words: co-IP; HFF cells transfected with vMIA-myc and Pex19-YFP for 24 h; precipitated with GFP antibody overnight at 4 °C and Dynabeads Protein G; blot for myc and GFP; control: cells with vMIA-myc alone.
The target of test [4] is vMIA-myc (HCMV mitochondria-localized inhibitor of apoptosis, myc-tagged) (human cytomegalovirus). In words: co-IP; HFF cells transfected with vMIA-myc for 24 h; precipitated with myc antibody (2 h, 4 °C) and Protein G magnetic beads; blot for myc and endogenous Pex19; control: non-transfected cells.
vMIA-myc (HCMV mitochondria-localized inhibitor of apoptosis, myc-tagged) (human cytomegalovirus), sequence (P16778 23-487): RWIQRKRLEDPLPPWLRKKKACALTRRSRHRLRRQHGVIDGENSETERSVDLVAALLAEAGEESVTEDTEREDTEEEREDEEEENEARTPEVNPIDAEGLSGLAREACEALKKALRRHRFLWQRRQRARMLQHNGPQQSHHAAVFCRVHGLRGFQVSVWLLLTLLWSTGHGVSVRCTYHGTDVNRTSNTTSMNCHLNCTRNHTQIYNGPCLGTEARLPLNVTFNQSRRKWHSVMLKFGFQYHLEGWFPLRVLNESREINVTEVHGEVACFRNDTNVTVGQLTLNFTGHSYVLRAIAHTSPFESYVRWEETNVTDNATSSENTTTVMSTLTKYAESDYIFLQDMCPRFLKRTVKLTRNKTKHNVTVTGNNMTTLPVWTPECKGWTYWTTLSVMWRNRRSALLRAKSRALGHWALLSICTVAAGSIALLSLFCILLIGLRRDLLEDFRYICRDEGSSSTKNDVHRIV

UniProt Q7Z434, sequence (Q7Z434 whole entry): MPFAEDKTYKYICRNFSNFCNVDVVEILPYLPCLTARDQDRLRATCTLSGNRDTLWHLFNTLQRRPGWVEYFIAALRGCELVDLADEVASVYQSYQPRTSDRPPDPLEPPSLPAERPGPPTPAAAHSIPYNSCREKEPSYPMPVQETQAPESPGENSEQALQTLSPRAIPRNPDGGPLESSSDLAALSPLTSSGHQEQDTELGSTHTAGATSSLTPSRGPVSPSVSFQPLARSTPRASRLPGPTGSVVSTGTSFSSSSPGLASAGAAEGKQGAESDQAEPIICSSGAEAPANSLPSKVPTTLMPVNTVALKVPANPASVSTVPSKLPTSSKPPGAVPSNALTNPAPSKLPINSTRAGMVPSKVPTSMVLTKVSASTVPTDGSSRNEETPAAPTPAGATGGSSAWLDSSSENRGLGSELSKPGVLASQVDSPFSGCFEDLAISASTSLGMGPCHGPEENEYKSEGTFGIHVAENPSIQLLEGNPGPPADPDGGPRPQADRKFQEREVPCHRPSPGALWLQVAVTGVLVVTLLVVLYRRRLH

On to “vMIA-myc (HCMV mitochondria-localized inhibitor of apoptosis, myc-tagged) (natural protein)”, for which the fold increase of the IP band over the control in test [1] turned out to be 18 fold; with Pex19-YFP [2], 7 fold; with Pex19-YFP [3], 5 fold.

B1: endogenous Pex19 (natural protein)
chain: MAAAEEGCSVGAEADRELEELLESALDDFDKAKPSPAPPSTTTAPDASGPQKRSPGDTAKDALFASQEKFFQELFDSELASQATAEFEKAMKELAEEEPHLVEQFQKLSEAAGRVGSDMTSQQEFTSCLKETLSGLAKNATDLQNSSMSEEELTKAMEGLGMDEGDGEGNILPIMQSIMQNLLSKDVLYPSLKEITEKYPEWLQSHRESLPPEQFEKYQEQHSVMCKICEQFEAETPTDSETTQKARFEMVLDLMQQLQDLGHPPKELAGEMPPGLNFDLDALNLSGPPGASGEQCLIM
B1 returned a fold increase of the IP band over the control in test [4] of 3 fold.
